Laboratory results as given in the RNAGym collection of RNA variant scans (doi:10.7554/elife.80360).

B1: Hammerhead Ribozyme (parent)
chain: ACCGGAUGUGCUUUCCGGUCUGAUGAGUCCGUGAGGACGAAACAG

Variants of: B1
Test: self-cleavage, relative activity (ratio to wild type); higher = more cleavage; co-transcriptional

| Variant | self-cleavage |
| --- | --- |
| G27C C29G | 0.279 |
| U9G G22C | 0.399 |
| C3G A37G | 0.334 |
| C20A A26U | 0.342 |
| G18C U24A | 0.617 |
| C16A G39A | 0.356 |
| G27C A34U | 0.436 |
| G5U U13G | 1.02 |
| C11G U12A | 1.1 |
| U9G A23C | 0.448 |
| G10C G36A | 0.586 |
| G18A G35U | 0.594 |
| G8C A44C | 0.608 |
| G31A A42G | 0.298 |
| G18C G27A | 0.416 |
| C11G G35C | 0.668 |
| U12G C43G | 0.181 |
| G10C C30A | 0.989 |
| G17C G18A | 0.361 |
| C2A U7G | 0.518 |
| G10C G39A | 0.368 |
| A23G A42G | 0.324 |
| G17C G33C | 0.458 |
| C2G A26U | 0.315 |

| Variant | self-cleavage |
| --- | --- |
| A23G G33C | 0.376 |
| G36U A42U | 0.329 |
| G18C G33U | 0.708 |
| G45A | 0.842 |
| C16A G18C | 0.341 |
| G10A C20U | 0.543 |
| G5A G35U | 0.848 |
| G5A G35A | 0.642 |
| C30G G33A | 0.715 |
| C20U A23G | 0.356 |
| G39U C43U | 0.371 |
| C15A A41U | 0.287 |
| C2A G45C | 0.42 |
| C3A U14G | 0.672 |
| U7G U32A | 1.49 |
| U32C A34U | 0.738 |
| U19C G31C | 0.657 |
| C30G A34G | 0.409 |
| A6G A23U | 0.274 |
| U13G C15A | 0.701 |
| G18U A44C | 0.431 |
| G18U A44U | 0.368 |
| U9G G31C | 0.754 |
| U28G G45C | 0.412 |

| Variant | self-cleavage |
| --- | --- |
| C2A A44C | 0.425 |
| C38U C43G | 0.321 |
| U21G G45A | 0.4 |
| G8C C15A | 0.837 |
| G4C U9C | 0.704 |
| C3G U28A | 0.376 |
| G27A G31C | 0.864 |
| A1C U13A | 0.557 |
| A23U G31U | 0.477 |
| G22C U28A | 0.351 |
| G35C G45C | 0.395 |
| U12A G22C | 0.236 |
| C20G C30G | 0.37 |
| C2U U19A | 0.365 |
| C20A A37C | 0.417 |
| G8C A40G | 0.372 |
| U24G U32G | 0.405 |
| C29U G33C | 1.09 |
| C3G U14A | 0.347 |
| G36C A42G | 0.272 |
| C2A G31A | 0.969 |
| U12A C20G | 0.312 |
| C11G U28G | 0.849 |
| G17C C38G | 0.452 |

| Variant | self-cleavage |
| --- | --- |
| C16A A23C | 0.32 |
| G8C C11U | 1.02 |
| A6C A44C | 0.391 |
| G4A C11G | 0.539 |
| U12C A40G | 0.329 |
| C30U G35A | 1.02 |
| U12C U28C | 1.35 |
| C3G U32C | 0.433 |
| U32C A37C | 0.803 |
| G5A U13A | 1.68 |
| G5A U13C | 1.6 |
| G4C G25A | 0.307 |
| G22U G39U | 0.305 |
| U21A A34G | 0.387 |
| U21A A34U | 0.359 |
| C30G G31U | 0.88 |
| U7G A23G | 0.273 |
| G8C U19C | 0.544 |
| C16A A26G | 0.37 |
| A6G G35U | 0.465 |
| G36C A40U | 0.346 |
| C11U G35C | 0.588 |
| A1G C11G | 2.12 |
| C3G | 0.537 |

| Variant | self-cleavage |
| --- | --- |
| G4U G17C | 0.34 |
| U9A G31U | 1.3 |
| G22U A40U | 0.332 |
| C3U C43U | 0.492 |
| G17C A42G | 0.335 |
| G22C G31U | 0.309 |
| C3U C16U | 0.955 |
| G18U A42G | 0.37 |
| A26C C30A | 0.426 |
| U21C G39C | 0.378 |
| C3A A23U | 0.28 |
| U13C G25C | 0.264 |
| A26U A34C | 0.355 |
| C3G U19A | 0.265 |
| G4A U13A | 1.01 |
| C2U G18C | 0.869 |
| C3A G39U | 0.235 |
| A1G G10A | 1.92 |
| G22C A23C | 0.28 |
| A23U G36A | 0.375 |
| A23U G36C | 0.327 |
| G5U U7G | 0.708 |
| U14G U21C | 0.812 |
| A1C G22A | 0.396 |

| Variant | self-cleavage |
| --- | --- |
| A34G C38G | 0.598 |
| C16U G25U | 0.356 |
| G31U C43U | 0.637 |
| G8A A41G | 0.331 |
| C3G U24C | 0.477 |
| U9C G33U | 1.24 |
| C15U G17C | 0.399 |
| G17U A42G | 0.333 |
| U9C C16U | 1.41 |
| G18C G39A | 0.289 |
| G10C U28G | 0.38 |
| U19G U21G | 0.328 |
| C2G G33A | 0.463 |
| U21A A44C | 0.415 |
| C15A C30G | 0.557 |
| G18U G27U | 0.53 |
| A1G C30A | 1.3 |
| C16A G36A | 0.523 |
| U24C C30A | 0.904 |
| G27U C38G | 0.597 |
| U19G A44C | 0.361 |
| A1U A23G | 0.383 |
| G31A A34G | 0.846 |
| C15U U28A | 0.516 |

| Variant | self-cleavage |
| --- | --- |
| C2A C30G | 0.333 |
| U12A G17U | 0.827 |
| A6G U24G | 0.777 |
| U9A U21G | 0.58 |
| G5C G18C | 0.34 |
| U14G A37U | 0.566 |
| G18U G25U | 0.324 |
| C15G U28C | 0.528 |
| C2G C11A | 0.378 |
| G10C A26U | 0.851 |
| U12C U24C | 1.01 |
| G36U A41G | 0.391 |
| U7A A41G | 0.368 |
| G22A A34U | 0.309 |
| U19C C43G | 0.393 |
| U28A | 0.822 |
| G17C C20U | 0.331 |
| C3U G10U | 1.22 |
| C29G G33A | 0.788 |
| U9G U14A | 0.916 |
| U12C C43G | 0.305 |
| C16U U24G | 1.16 |
| U19C G33C | 0.38 |
